Assay results from patent US11866760B2, “Microorganisms for the production of insect pheromones and related compounds” (Provivi, Inc., priority 2017, dated 2024).
Several values for one entry are separate records, joined by “and”; a condition that tells them apart may be missing. Equal entries are not always repeated.

What was measured:
Assay type in all cases: cell-based, Saccharomyces cerevisiae
[1] = system: palmitic acid; experiment: in vivo bioconversion of palmitic acid into (Z)-11-hexadecenoic acid in S. cerevisiae ΔOLE1; details: ΔOLE1, ~96 h in minimal medium containing palmitic acid
Protocol: To assess functional expression, two positive transformation clones that had been patched on CM-Ura glucose agar medium containing UFA were inoculated in 1.5 mL CM-Ura glucose liquid medium containing palmitic acid (in ethanol) at a final concentration of 300 mg/L, and with 6.7 g/L of YNB. For (z)-11-hexadecenoic isomer confirmation, a 20 mL culture was generated. Bioconversion assay proceeded for 96 h at 28° C. prior to GC-MS analysis.
Total lipid composition as well as the (Z)-11-hexadecenoic acid quantification was based on modified procedures by Moss et al. (1982) (Moss, C. W., Shinoda, T. & Samuels, J. W. Determination of cellular fatty acid compositions of various yeasts by gas-liquid chromatography. J. Clin. Microbiol. 16: 1073-1079 (1982)) and Yousuf et al (2010) (Yousuf, A., Sannino, F., Addorisio, V. & Pirozzi, D. Microbial Conversion of Olive Oil Mill Wastewaters into Lipids Suitable for Biodiesel Production. J. Agric. Food Chem. 58: 8630-8635 (2010)). The pelleted cells (in 1.5 mL plastic tubes), usually about 10 mg to 80 mg, were resuspended in methanol containing 5% (w/w) of sodium hydroxide. […]
The regioselectivity of biologically produced (Z)-11-hexadecenoic acid was determined by comparing the fragmentation patterns of the dimethyl disulfide (DMDS) derivative with the DMDS derivative of an authentic standard. […]

[2] = system: S. cerevisiae ΔOLE1; experiment: ΔOLE1 growth complementation assay without UFA
Source text: S. cerevisiae ΔOLE1 (MATA OLE1::LEU2 ura3-52 his4) was used as an expression host. A synthetic expression cassette termed pOLE1 (FIG. 10, SEQ ID NO: 4) which comprises the OLE1 promoter region (SEQ ID NOs: 5 and 6), nucleotides encoding for 27 N-terminal amino acids of the OLE1 leader sequence (SEQ ID NO: 7), and a VPS13 terminator sequence (SEQ ID NO: 8) was created, and cloned into pESC-URA vector in between SacI and EcoRI sites. To test the functionality of the pOLE1 cassette, Dasher GFP synthon was inserted in between SpeI and NotI sites to create pOLE1-GFP plasmid. Competent ΔOLE1 was transformed with pOLE1-GFP, and plated on CM-Ura glucose agar plate (Teknova) containing UFA (20 mm CM-URA glucose agar plate was coated with 100 μL CM-Ura glucose medium containing 1% tergitol, and 3 μL palmitoleic acid). […] Validation of ΔOLE1 complementation was performed by restoring OLE1 activity. Specifically, native S. cerevisiae OLE1 synthon was inserted into pOLE1 cassette devoid of the leader sequence to create pOLE1-OLE1 plasmid. After transformation of ΔOLE1, and selection on CM-Ura glucose agar containing UFA, single colonies were patched onto YPD and CM-Ura glucose without UFA. After incubation at 30° C. for 5 days, growth was observed (FIG. 11A-FIG. 11E). As expected, Dasher GFP expression could not complement ΔOLE1 growth without UFA (FIG. 11A-FIG. 11E). DNA sequences which encode for desaturase variants were synthesized (to include nucleotide changes which remove restriction sites used for cloning purposes), and cloned into pOLE1 using SpeI-NotI sites (Genscript, SEQ ID NOs: 9-13). Complementation assay of ΔOLE1 with insect desaturases were performed in the same way as with OLE1 desaturase.

[3] = system: Z11-hexadecenoic acid; experiment: in vivo bioconversion of Z11-hexadecenoic acid into Z11-hexadecenol by alcohol-forming reductases in S. cerevisiae
Source text: S. cerevisiae W303 (MATA ura3-1 trp1-1 leu2-3_112 his3-11_15 ade2-1 can1-100) and BY4742 (MATa POX1::kanMX his3Δ1 leu2Δ0 lys2Δ0 ura3Δ0) were used as expression hosts. DNA sequences which encode fatty alcohol reductase variants were redesigned to optimize expression in S. cerevisiae (SEQ ID NOs: 1-3). Generated synthons (Genscript) were cloned into pESC-URA vector using BamHI-XhoI sites to facilitate protein expression utilizing the Gal1 promoter. The resulting plasmid constructs were used to transform W303, and positive transformants were selected on CM agar medium (with 2% glucose, and lacking uracil) (Teknova). To assess functional expression, two positive transformation clones that have been patched on CM agar medium (with 2% glucose, and lacking uracil) were used to seed CM liquid medium using a 24 deep-well plate format. […]
The lipids were extracted according to a modified procedure of Hagström et al. (2012) (Hagström, A. K., Liénard, M. A., Groot, A. T., Hedenström, E. & Löfstedt, C. Semi-Selective Fatty Acyl Reductases from Four Heliothine Moths Influence the Specific Pheromone Composition. PLoS One 7: e37230 (2012)). […] The trimethylsilyl-esters, which were generated by this method were subsequently analyzed by GC-MS analysis. […] A Z11-hexadecenol calibration curve shown in FIG. 9 was used to quantify the Z11-hexadecenol produced from yeasts. […]

Row | Molecule | (Z)-9-hexadecenoic acid in C16-fatty acid [1] [%] | hexadecanoic acid in C16-fatty acid [1] | rescue of ΔOLE1 growth without UFA ([2]; minimal medium (CM-Ura glucose) agar plate) | rescue of ΔOLE1 growth without UFA ([2]; rich medium (YPD) agar plate) | activity toward Z11-hexadecenoic acid among the reductases tested ([3]; S. cerevisiae) | Z11-hexadecenol production ([3]; W303A, within 48 h of protein induction, 300 mg/L Z11-hexadecenoic acid)
1 | S. cerevisiae OLE1: native S. cerevisiae palmitoyl:CoA/stearoyl:CoA (Z)-9-desaturase, positive control (protein, UniProt P21147 1-510, looked up) Acyl-CoA desaturase 1: MPTSGTTIELIDDQFPKDDSASSGIVDEVDLTEANILATGLNKKAPRIVNGFGSLMGSKEMVSVEFDKKGNEKKSNLDRLLEKDNQEKEEAKTKIHISEQPWTLNNWHQHLNWLNMVLVCGMPMIGWYFALSGKVPLHLNVFLFSVFYYAVGGVSITAGYHRLWSHRSYSAHWPLRLFYAIFGCASVEGSAKWWGHSHRIHHRYTDTLRDPYDARRGLWYSHMGWMLLKPNPKYKARADITDMTDDWTIRFQHRHYILLMLLTAFVIPTLICGYFFNDYMGGLIYAGFIRVFVIQQATFCINSLAHYIGTQPFDDRRTPRDNWITAIVTFGEGYHNFHHEFPTDYRNAIKWYQYDPTKVIIYLTSLVGLAYDLKKFSQNAIEEALIQQEQKKINKKKAKINWGPVLTDLPMWDKQTFLAKSKENKGLVIISGIVHDVSGYISEHPGGETLIKTALGKDATKAFSGGVYRHSNAAQNVLADMRVAVIKESKNSAIRMASKRGEIYETGKFF | ~31.4 | approximately 68.6% | rescued ΔOLE1 growth without exogenous UFA | highest level of growth | – | –
2 | H. armigera reductase: Helicoverpa armigera alcohol-forming fatty acyl-CoA reductase, SEQ ID NO: 41 (protein, Helicoverpa armigera alcohol forming reductase (HaFAR)) MVVLTSKETKPSVAEFYAGKSVFITGGTGFLGKVFIEKLLYSCPDIENIYMLIREKKGLSVSERIKQFLDDPLFTRLKDKRPADLEKIVLIPGDITAPDLGINSENEKMLIEKVSVIIHSAATVKFNEPLPTAWKINVEGTRMMLALSRRMKRIEVFIHISTAYTNTNREVVDEILYPAPADIDQVHQYVKDGISEEDTEKILNGRPNTYTFTKALTEHLVAENQAYVPTIIVRPSVVAAIKDEPLKGWLGNWFGATGLTVFTAKGLNRVIYGHSSYIVDLIPVDYVANLVIAAGAKSSKSTELKVYNCCSSSCNPVTIGTLMSMFADDAIKQKSYAMPLPGWYIFTKYKWLVLLLTFLFQVIPAYVTDLSRHLIGKSPRYIKLQSLVNQTRSSIDFFTNHSWVMKADRVRELYASLSPADKYLFPCDPTDINWTHYIQDYCWGVRHFLEKKSYE | – | – | – | – | most active | ≤ 70 μM and ≤ 16 mg/L
